For assay [1], the target named is HLA-B*07:02. The assay can be described thus: IEDB peptide-MHC binding, purified MHC/competitive/radioactivity; ≥ and ≤ were set here for values at or beyond the usual limits of such assays.
The target of assay [2] is HLA-B*54:01. The assay is described as above.
Assay [3] deals with HLA-B*35:01. The assay can be described thus: IEDB peptide-MHC binding, purified MHC/competitive/radioactivity; filed as Kd, often an IC50 or EC50 that approximates it; ≥ and ≤ were set here for values at or beyond the usual limits of such assays.
Assay [4] deals with HLA-B*51:01. The description is as above.
In assay [5] the target is HLA-B*53:01. The description is as above.
Assay [6] has as its target HLA-B*35:01. The assay can be described thus: IEDB peptide-MHC binding, purified MHC/competitive/radioactivity; ≥ and ≤ were set here for values at or beyond the usual limits of such assays.
The target of assay [7] is HLA-B*53:01. The assay is described as above.
Assay [8] concerns the target HLA-B*51:01. Described as above.
Assay [9] deals with HLA-B*07:02. Put plainly: IEDB peptide-MHC binding, purified MHC/competitive/radioactivity; filed as Kd, often an IC50 or EC50 that approximates it; ≥ and ≤ were set here for values at or beyond the usual limits of such assays.
Assay [10] deals with HLA-B*54:01. The assay is described as above.
Where [11] appears, read: source organism: human papillomavirus 11.
Where [12] appears, read: source organism: Human immunodeficiency virus 1.
Setting [13] is: source organism: Candida albicans.
Setting [14] is: source organism: human papillomavirus 18.
The mark [15] stands for this setting: source organism: Human immunodeficiency virus type 1 (RF/HAT ISOLATE).
The mark [16] stands for this setting: source organism: Human papillomavirus type 6b.
Setting [17] is: source organism: Human T-cell leukemia virus type I.
Where [18] appears, read: source organism: Hepatitis C virus (isolate Taiwan).
[19] abbreviates: source organism: Human T-cell lymphotrophic virus type 1 (Caribbean isolate).

SPISNVANA: the results for the IC50 in assay [1] (setting [11]) and in assay [2] (setting [11]) were 655 nM and 56 nM, respectively. Further, the Kd in assay [3] (setting [11]) is not below 25000 nM; in assay [4] (setting [11]), 5500 nM; in assay [5] (setting [11]) it was not below 25000 nM.

FPVRPQVPQ: the IC50 is 380 nM in assay [1] (setting [12]), 394 nM in assay [6] (setting [12]) and 79 nM in assay [2] (setting [12]). Besides, the equilibrium dissociation constant (Kd) in [4] (setting [12]) and in [5] (setting [12]) was 1300 nM throughout.

On to FPVRPQVPM, for which the IC50 in [1] (setting [12]) was 3.8 nM; in assay [6] (setting [12]), 13 nM; in assay [7] (setting [12]) it was 32.5 nM; in assay [2] (setting [12]), 79 nM. The Kd in assay [4] (setting [12]) is 1300 nM.

As for FPVRPQVPT, the IC50 in [1] (setting [12]) was 380 nM; in assay [6] (setting [12]) it was 26 nM; in assay [2] (setting [12]) it was 1.8 nM. The Kd in [4] (setting [12]) and in assay [5] (setting [12]) was 1300 nM in each case.

For FPVRPQVPL, the figures for the IC50 in [8] (setting [12]) and in assay [7] (setting [12]) were 679 nM and 192 nM, respectively.

Turning to FPASFFIKL, the IC50 was 14 nM in assay [1] (setting [13]); 15 nM in assay [6] (setting [13]); 8.7 nM in assay [8] (setting [13]); 6.7 nM in assay [7] (setting [13]); 15 nM in assay [2] (setting [13]).

For TPAEVSIVV, the 50% inhibitory concentration (IC50) in assay [8] (source organism: Homo sapiens) was determined as 39 nM; in [2] (source organism: Homo sapiens), 333 nM. Besides, the values for the Kd in assay [9] (source organism: Homo sapiens), in [3] (source organism: Homo sapiens) and in assay [5] (source organism: Homo sapiens) were 1530 nM, 2120 nM and 15500 nM, respectively.

In the case of LPQPPICTI, the results for the IC50 in [1] (source organism: Homo sapiens), in [8] (source organism: Homo sapiens) and in [2] (source organism: Homo sapiens) were 240 nM, 4.3 nM and 20 nM, respectively.

Regarding QPKKVKRRL, the Kd was 2900 nM in assay [9] (setting [11]); not below 25000 nM in assay [3] (setting [11]); 3240 nM in assay [4] (setting [11]); not below 25000 nM in assay [5] (setting [11]); not below 25000 nM in assay [10] (setting [11]).

Turning to LPTNASLSF, the IC50 came out at 115 nM in [6] (source organism: Homo sapiens), 809 nM in assay [8] (source organism: Homo sapiens) and 34 nM in [7] (source organism: Homo sapiens). In addition, in [10] (source organism: Homo sapiens), the Kd was not below 25000 nM.

As to LPSIPVHPI, the IC50 in assay [1] (source organism: Homo sapiens) was found to be 68 nM; in assay [8] (source organism: Homo sapiens), 32 nM; in assay [7] (source organism: Homo sapiens), 465 nM; in [2] (source organism: Homo sapiens), 38 nM. Further, in assay [3] (source organism: Homo sapiens), the Kd was determined as 2940 nM.

In the case of SPSCPLERF, the IC50 came out at 833 nM in assay [1] (source organism: Homo sapiens) and 379 nM in assay [6] (source organism: Homo sapiens). Also, the values for the Kd in assay [4] (source organism: Homo sapiens), in assay [5] (source organism: Homo sapiens) and in assay [10] (source organism: Homo sapiens) were 1900 nM, 3440 nM and not below 25000 nM, respectively.

With SPLGERLEV, the IC50 in assay [1] (setting [14]) is 42 nM. For the same sequence, the Kd was not below 25000 nM in assay [3] (setting [14]), not below 25000 nM in [4] (setting [14]), not below 25000 nM in [5] (setting [14]) and 9090 nM in assay [10] (setting [14]).

For FPISPIETV, the values for the IC50 in assay [8] (setting [15]), in assay [7] (setting [15]) and in assay [2] (setting [15]) were 147 nM, 251 nM and 9.8 nM, respectively. In addition, the dissociation constant (Kd) in [9] (setting [15]) was determined as 3480 nM; in assay [3] (setting [15]), 1050 nM.

As for EPGPVTAQV, the IC50 in [1] (source organism: Homo sapiens) turned out to be 902 nM; in [8] (source organism: Homo sapiens) it was 28 nM; in assay [2] (source organism: Homo sapiens), 476 nM. The Kd in assay [3] (source organism: Homo sapiens) and in [5] (source organism: Homo sapiens) was not below 25000 nM in each case.

With IPLYRNGDF, in [1] (source organism: Homo sapiens), the IC50 came to 60 nM. Also, the Kd in assay [3] (source organism: Homo sapiens) is not below 25000 nM; in assay [4] (source organism: Homo sapiens), 5500 nM; in [5] (source organism: Homo sapiens), not below 25000 nM; in [10] (source organism: Homo sapiens), not below 25000 nM.

As for CPLERFAEL, the concentration for half-maximal inhibition (IC50) came out at 68 nM in assay [1] (source organism: Homo sapiens), 103 nM in [6] (source organism: Homo sapiens), 6.2 nM in assay [8] (source organism: Homo sapiens) and 198 nM in assay [7] (source organism: Homo sapiens). Besides, in assay [10] (source organism: Homo sapiens), the Kd stood at 1000 nM.

Consider VPLAHSSSA, for which the IC50 in assay [1] (source organism: Homo sapiens) was 172 nM; in assay [8] (source organism: Homo sapiens), 367 nM; in [2] (source organism: Homo sapiens), 23 nM. In addition, the Kd in assay [3] (source organism: Homo sapiens) and in assay [5] (source organism: Homo sapiens) was not below 25000 nM each time.

For IPFLTKFKL, the IC50 in assay [8] (setting [16]) came out at 31 nM; in assay [7] (setting [16]) it was 581 nM; in assay [2] (setting [16]) it was 833 nM. In addition, the results for the Kd in assay [9] (setting [16]) and in assay [3] (setting [16]) were 2390 nM and 9000 nM, respectively.

Consider LPTTLFQPY, for which the IC50 in assay [1] (setting [17]) came out at 423 nM; in [8] (setting [17]), 42 nM; in assay [2] (setting [17]), 0.83 nM. Also, the Kd in assay [3] (setting [17]) is 1560 nM; in assay [5] (setting [17]) it was 11600 nM.

Take FPPEGVSIW: the half-maximal inhibitory concentration (IC50) was found to be 21 nM in assay [8] (source organism: Homo sapiens) and 16 nM in assay [7] (source organism: Homo sapiens). Also, the Kd in assay [9] (source organism: Homo sapiens) was not below 25000 nM; in assay [3] (source organism: Homo sapiens), 4240 nM; in assay [10] (source organism: Homo sapiens), 3850 nM.

As to QPFILYAHI, in [8] (setting [14]), the half-inhibitory concentration (IC50) was 26 nM. Further, the Kd in assay [9] (setting [14]) is not below 25000 nM; in assay [3] (setting [14]), not below 25000 nM; in assay [5] (setting [14]), 5470 nM; in assay [10] (setting [14]), 2940 nM.

With MPNQAQMRI, the IC50 in [1] (source organism: Homo sapiens) was determined as 600 nM; in assay [8] (source organism: Homo sapiens) it was 14 nM; in assay [7] (source organism: Homo sapiens) it was 20 nM; in assay [2] (source organism: Homo sapiens), 424 nM. For the same sequence, the Kd in assay [3] (source organism: Homo sapiens) is 1040 nM.

With FAVRPQVPL, the values for the IC50 in assay [6] (setting [12]) and in [8] (setting [12]) were 148 nM and 591 nM, respectively. The figures for the Kd in assay [9] (setting [12]), in [5] (setting [12]) and in assay [10] (setting [12]) were 1300 nM, 6170 nM and 4250 nM, respectively.

As to LPFRNCPRF, the IC50 in assay [6] (source organism: Homo sapiens) came to 400 nM; in assay [8] (source organism: Homo sapiens), 14 nM; in [7] (source organism: Homo sapiens) it was 620 nM; in assay [2] (source organism: Homo sapiens), 270 nM. The Kd in [9] (source organism: Homo sapiens) was 1120 nM.

As for HPEDTGQVF, the IC50 in assay [6] (source organism: Homo sapiens) worked out at 206 nM; in assay [7] (source organism: Homo sapiens), 404 nM. The values for the equilibrium dissociation constant (Kd) in [4] (source organism: Homo sapiens) and in assay [10] (source organism: Homo sapiens) were 1960 nM and not below 25000 nM, respectively.

As for IPEPEGPDA, the Kd was not below 25000 nM in [9] (source organism: Homo sapiens); not below 25000 nM in [3] (source organism: Homo sapiens); 5500 nM in assay [4] (source organism: Homo sapiens); not below 25000 nM in assay [5] (source organism: Homo sapiens); not below 5000 nM in assay [10] (source organism: Homo sapiens).

With SPATLLLVL, the half-maximal inhibitory concentration (IC50) in assay [1] (source organism: Homo sapiens) stood at 10 nM; in assay [6] (source organism: Homo sapiens), 176 nM; in [8] (source organism: Homo sapiens), 162 nM; in assay [7] (source organism: Homo sapiens), 23 nM. For the same sequence, in assay [10] (source organism: Homo sapiens), the Kd was determined as 12500 nM.

Turning to FPRFKFVWV, the IC50 in assay [1] (setting [13]) was determined as 51 nM; in assay [8] (setting [13]), 136 nM; in [2] (setting [13]), 17 nM. Further, the Kd in [3] (setting [13]) was not below 25000 nM; in assay [5] (setting [13]) it was 3510 nM.

Consider FPYLVAYQA, for which the IC50 in assay [8] (setting [18]) turned out to be 57 nM. Further, the Kd was 18000 nM in [9] (setting [18]) and 1710 nM in assay [5] (setting [18]).

On to FPVRPQVPC, for which the results for the IC50 in [1] (setting [12]) and in [2] (setting [12]) were 380 nM and 65.8 nM, respectively. The dissociation constant Kd in assay [3] (setting [12]), in assay [4] (setting [12]) and in assay [5] (setting [12]) was 1300 nM in each case.

In the case of MPREDAHFI, the IC50 in assay [6] (source organism: Homo sapiens) came out at 450 nM; in [8] (source organism: Homo sapiens), 0.46 nM; in assay [7] (source organism: Homo sapiens) it was 6.6 nM; in [2] (source organism: Homo sapiens) it was 294 nM.

In the case of YPCTVNFTI, the IC50 turned out to be 12 nM in assay [8] (setting [18]) and 102 nM in assay [7] (setting [18]). Also, in [9] (setting [18]), the Kd was determined as 10800 nM.

As for FPVRPQVPI, the IC50 in assay [1] (setting [12]) is 22.4 nM; in assay [6] (setting [12]) it was 118 nM; in assay [8] (setting [12]), 14.8 nM; in [7] (setting [12]), 30.2 nM; in assay [2] (setting [12]), 1.6 nM.

Consider LPSPACQLV, for which the IC50 in [8] (source organism: Homo sapiens) was 8.2 nM; in assay [2] (source organism: Homo sapiens), 217 nM. Besides, the dissociation constant Kd in [9] (source organism: Homo sapiens) was 7860 nM; in assay [3] (source organism: Homo sapiens), not below 25000 nM; in [5] (source organism: Homo sapiens), 7150 nM.

With WPLLPHVIF, the IC50 was 367 nM in assay [1] (setting [19]), 180 nM in assay [6] (setting [19]), 262 nM in assay [8] (setting [19]) and 63 nM in assay [2] (setting [19]). Besides, the Kd in assay [5] (setting [19]) worked out at 1010 nM.

As usually defined, the IC50 is the point on the concentration scale where inhibition reaches its midpoint. As usually defined, the Kd is the free concentration of one partner at which half of the binding sites on the other are occupied at equilibrium, for simple one-to-one binding.

Values taken from the Immune Epitope Database (IEDB).
